Source: patent US10513713B2, “Modified host cells having tolerance to α-olefins” (priority 2014, dated 2019)

Legend:
Type in all cases: cell-based
E. coli K12 [1] = assay: Survival test on agar plate with 1-octene overlay; details: 2 days at room temperature, FIG. 1B
Experimental: FIG. 1. Impact of styrene, 1-hexene and 1-octene on cell growth. A: The olefin compounds were added to different concentrations as indicated to an E. coli K12 culture at an OD600=0.2. OD was monitored after 2 hour at 37° C. The bars represent standard deviation between duplicates B: A survival test in presence of 1-octene was performed. Six different dilutions of a culture (10 cells to 10^7 cells, left to right) of E. coli K12 were spotted in triplicate on an agar plate. An overlay of 1-octene was added over the cells (controls had no overlay). Plates were incubated at room temperature for 2 days and then opened to allow evaporation of the olefin.
For agar plate based assays, cells were first streaked overnight and few colonies were used to inoculate a preculture of 6 mL of LB-Cm with glucose (2 g/L) and arabinose (5 mM). At OD60=1 at 37° C., the cultures were used to prepare a dilution series. Dilution 0 (D0) corresponds to the OD600, =1, and contains ˜10^9 cells/mL. Dilution 1 (D1) is a 10-fold dilution of D0, dilution 2 (D2) a 10-fold dilution of D1 up to dilution 5 (D5), which contains ˜10^4 cells/mL. 10 μL of each dilution was spotted in triplicate on LB-agar plates (single well plates, Thermo Scientific, Waltham, Mass.) containing 30 mL of LB-agar, Cm (30 mg/L), glucose (2 g/L) and arabinose (5 mM). […]

E. coli K12 [2] = assay: microbe, parasite or virus in culture; details: Escherichia coli, K12, 2 h, read-out: toxic dose (concentration of compound that decreased growth by half)
Experimental: A: The olefin compounds were added to different concentrations as indicated to an E. coli K12 culture at an OD600=0.2. OD was monitored after 2 hour at 37° C. The bars represent standard deviation between duplicates B: A survival test in presence of 1-octene was performed. Six different dilutions of a culture (10 cells to 10^7 cells, left to right) of E. coli K12 were spotted in triplicate on an agar plate. […] Plates were incubated at room temperature for 2 days and then opened to allow evaporation of the olefin.
In this example, toxicity of olefin compounds was evaluated. A toxic dose was defined as the concentration of compound that decreased growth by half.

E. coli K12 ΔacrAB [3] = assay: Growth in liquid culture with 1-hexene, styrene or bile salts, strains producing AcrAB or AcrB variants; details: pABc vs p0c, styrene, FIG. 2A
Experimental: (§1) FIG. 2: impact of AcrAB production on growth, in presence of styrene 1-hexene, 1-octene and 1-nonene on cell growth. A: Different concentrations of styrene were added to an OD600=0.2 culture of E. coli K12 ΔacrAB containing the pABc (white) or the control plasmid p0c (black). OD density was monitored after 2 hours of growth at 37° C. The bars represent standard deviation between duplicates. B: A survival test in presence of 1-hexene, 1-octene, or 1-nonene saturated atmosphere was performed. Six different dilutions of cultures (10 cells to 10^7 cells, left to right on the figure) were spotted in triplicate on an agar plates. Plates were then exposed to the aforementioned chemicals.
FIG. 5: Impact of beneficial AcrB mutations on growth, in presence of 1-hexene and styrene. Different concentrations of 1-hexene (A), styrene (B), or bile salts (C) were added to an OD600=0.2 culture of E. Coli K12 ΔacrAB containing either the AcrB wild type (pABc) or the AcrB variants. OD densities were monitored after 2 hours of culture at 37° C. The bars represent standard deviation between duplicates.
Cells were first inoculated in 6 mL LB-Cm with glucose (2 g/L) and arabinose (5 mM). […] After 2 hours at 37° C., OD600 was measured. […]

E. coli K12 wild type = assay: Survival test in 1-hexene saturated atmosphere on over-production of AcrA, AcrB and TolC; details: FIG. 3
Experimental: Six different dilutions of cultures (10 cells to 10^7 cells, left to right on the picture) were spotted in triplicate on an agar plate.
For agar plate based assays, cells were first streaked overnight and few colonies were used to inoculate a preculture of 6 mL of LB-Cm with glucose (2 g/L) and arabinose (5 mM). At OD60=1 at 37° C., the cultures were used to prepare a dilution series. Dilution 0 (D0) corresponds to the OD600, =1, and contains ˜10^9 cells/mL. Dilution 1 (D1) is a 10-fold dilution of D0, dilution 2 (D2) a 10-fold dilution of D1 up to dilution 5 (D5), which contains ˜10^4 cells/mL. 10 μL of each dilution was spotted in triplicate on LB-agar plates (single well plates, Thermo Scientific, Waltham, Mass.) containing 30 mL of LB-agar, Cm (30 mg/L), glucose (2 g/L) and arabinose (5 mM). […] The agar plates were then inverted over the lid, cells facing the olefin compound, sealed with parafilm, placed in the plastic bag (the original packaging for the petri dishes) and incubated for 2 days at room temperature. For 1-octene, a second condition, via overlaying 2 mL of compound on the top of the agar submerging the cells, was used. TolC overexpression impact was examined using the same method, but in this case, the LB media and the LB-agar were also supplemented with ampicillin (100 mg/L) and IPTG (100 μM).

E. coli K12 ΔacrAB [4] = assay: Survival assay on agar plate in olefin saturated atmosphere, strains producing AcrAB or AcrB variants; details: pump expression vs control plasmid, saturated atmosphere, FIG. 2B
Experimental: as §1
FIG. 4: Impact of beneficial mutations on AcrB on tolerance to 1-hexene, A: Survival test of E. coli strain producing either the AcrB wild type or variants in a 1-hexene saturated atmosphere was performed. Two dilutions of cultures (Dilution 1: 10^5 cells and Dilution 2: 10^4 cells) were spotted in triplicate on an agar plate. B: Localization of the 6 beneficial mutations represented on the structure of a single monomer of AcrB or C: on the structure of the AcrB trimer.
FIG. 6: Impact of beneficial mutations on AcrB on tolerance to 1-hexene. A: Survival test of E. coli strain producing either the AcrB Wild type or variants with 1, 2 or several beneficial mutations, in an 1-hexene saturated atmosphere was performed. Two dilutions of cultures (Dilution 2: 10^4 cells and Dilution 3: 10^3 cells) were spotted in triplicate on an agar plate. B: Soluble fraction of total proteins from a culture of strains producing either the wild type, either the variant F617L, either the variant 6 (A279T, Q584R, F617L) were analyzed by western blot using anti-His antibody.
For agar plate based assays, cells were first streaked overnight and few colonies were used to inoculate a preculture of 6 mL of LB-Cm with glucose (2 g/L) and arabinose (5 mM). At OD60=1 at 37° C., the cultures were used to prepare a dilution series. Dilution 0 (D0) corresponds to the OD600, =1, and contains ˜10^9 cells/mL. Dilution 1 (D1) is a 10-fold dilution of D0, dilution 2 (D2) a 10-fold dilution of D1 up to dilution 5 (D5), which contains ˜10^4 cells/mL. 10 μL of each dilution was spotted in triplicate on LB-agar plates (single well plates, Thermo Scientific, Waltham, Mass.) containing 30 mL of LB-agar, Cm (30 mg/L), glucose (2 g/L) and arabinose (5 mM). Small containers (microfuge tube lids) were placed on the open lid of the agar plate and filled with 400 to 600 μL of 1-hexene or 1-octene or with 75 μL of 1-nonene. The agar plates were then inverted over the lid, cells facing the olefin compound, sealed with parafilm, placed in the plastic bag (the original packaging for the petri dishes) and incubated for 2 days at room temperature. For 1-octene, a second condition, via overlaying 2 mL of compound on the top of the agar submerging the cells, was used. TolC overexpression impact was examined using the same method, but in this case, the LB media and the LB-agar were also supplemented with ampicillin (100 mg/L) and IPTG (100 μM). […]

| Molecule | toxicity relative to the other olefins tested (E. coli K12 [1]) | IC50 (E. coli K12 [2]) [µg/mL] | survival in the presence of styrene compared to control plasmid (E. coli K12 ΔacrAB [3]) | tolerance to 1-hexene on over-expression in the wild type strain (E. coli K12 wild type) | survival and growth in 1-hexene, 1-octene and 1-nonene (E. coli K12 ΔacrAB [4]) |
| --- | --- | --- | --- | --- | --- |
| C=CCCCCCC [1-octene] | less toxic | > 1000 | – | – | – |
| AcrA and AcrB: plasmid-borne wild type acrA and acrB in an operon under an arabinose inducible promoter (pABc) (protein, UniProt P0AE06 25-397; P31224 1-1049, looked up) Multidrug efflux pump subunit … 1: CDDKQAQQGGQQMPAVGVVTVKTEPLQITTELPGRTSAYRIAEVRPQVSGIILKRNFKEGSDIEAGVSLYQIDPATYQATYDSAKGDLAKAQAAANIAQLTVNRYQKLLGTQYISKQEYDQALADAQQANAAVTAAKAAVETARINLAYTKVTSPISGRIGKSNVTEGALVQNGQATALATVQQLDPIYVDVTQSSNDFLRLKQELANGTLKQENGKAKVSLITSDGIKFPQDGTLEFSDVTVDQTTGSITLRAIFPNPDHTLLPGMFVRARLEEGLNPNAILVPQQGVTRTPRGDATVLVVGADDKVETRPIVASQAIGDKWLVTEGLKAGDRVVISGLQKVRPGVQVKAQEVTADNNQQAASGAQPEQSKS Multidrug efflux pump subunit … 2: MPNFFIDRPIFAWVIAIIIMLAGGLAILKLPVAQYPTIAPPAVTISASYPGADAKTVQDTVTQVIEQNMNGIDNLMYMSSNSDSTGTVQITLTFESGTDADIAQVQVQNKLQLAMPLLPQEVQQQGVSVEKSSSSFLMVVGVINTDGTMTQEDISDYVAANMKDAISRTSGVGDVQLFGSQYAMRIWMNPNELNKFQLTPVDVITAIKAQNAQVAAGQLGGTPPVKGQQLNASIIAQTRLTSTEEFGKILLKVNQDGSRVLLRDVAKIELGGENYDIIAEFNGQPASGLGIKLATGANALDTAAAIRAELAKMEPFFPSGLKIVYPYDTTPFVKISIHEVVKTLVEAIILVFLVMYLFLQNFRATLIPTIAVPVVLLGTFAVLAAFGFSINTLTMFGMVLAIGLLVDDAIVVVENVERVMAEEGLPPKEATRKSMGQIQGALVGIAMVLSAVFVPMAFFGGSTGAIYRQFSITIVSAMALSVLVALILTPALCATMLKPIAKGDHGEGKKGFFGWFNRMFEKSTHHYTDSVGGILRSTGRYLVLYLIIVVGMAYLFVRLPSSFLPDEDQGVFMTMVQLPAGATQERTQKVLNEVTHYYLTKEKNNVESVFAVNGFGFAGRGQNTGIAFVSLKDWADRPGEENKVEAITMRATRAFSQIKDAMVFAFNLPAIVELGTATGFDFELIDQAGLGHEKLTQARNQLLAEAAKHPDMLTSVRPNGLEDTPQFKIDIDQEKAQALGVSINDINTTLGAAWGGSYVNDFIDRGRVKKVYVMSEAKYRMLPDDIGDWYVRAADGQMVPFSAFSSSRWEYGSPRLERYNGLPSMEILGQAAPGKSTGEAMELMEQLASKLPTGVGYDWTGMSYQERLSGNQAPSLYAISLIVVFLCLAALYESWSIPFSVMLVVPLGVIGALLAATFRGLTNDVYFQVGLLTTIGLSAKNAILIVEFAKDLMDKEGKGLIEATLDAVRMRLRPILMTSLAFILGVMPLVISTGAGSGAQNAVGTGVMGGMVTATVLAIFFVPVFFVVVRRRFSRKNEDIEHSHTVDHH | – | – | enhanced survival | greater than the wild type | strong advantage |
